PMC2120109 (The Journal of Cell Biology, 1994)
Where a chain is given by its changes, count along the chain named. In names and notes the source's numbering stands.

B1: NSF K266A mutant with His6 at the amino terminus and a myc epitope at the carboxy terminus (natural protein, UniProt P18708 1-744, looked up)
chain: MAGRSMQAARCPTDELSLSNCAVVSEKDYQSGQHVIVRTSPNHKYIFTLRTHPSVVPGSVAFSLPQRKWAGLSIGQEIEVALYSFDKAKQCIGTMTIEIDFLQKKNIDSNPYDTDKMAAEFIQQFNNQAFSVGQQLVFSFNDKLFGLLVKDIEAMDPSILKGEPASGKRQKIEVGLVVGNSQVAFEKAENSSLNLIGKAKTKENRQSIINPDWNFEKMGIGGLDKEFSDIFRRAFASRVFPPEIVEQMGCKHVKGILLYGPPGCGATLLARQIGKMLNAREPKVVNGPEILNKYVGESEANIRKLFADAEEEQRRLGANSGLHIIIFDEIDAICKQRGSMAGSTGVHDTVVNQLLSKIDGVEQLNNILVIGMTNRPDLIDEALLRPGRLEVKMEIGLPDEKGRLQILHIHTARMRGHQLLSADVDIKELAVETKNFSGAELEGLVRAAQSTAMNRHIKASTKVEVDMEKAESLQVTRGDFLASLENDIKPAFGTNQEDYASYIMNGIIKWGDPVTRVLDDGELLVQQTKNSDRTPLVSVLLEGPPHSGKTALAAKIAEESNFPFIKICSPDKMIGFSETAKCQAMKKIFDDAYKSQLSCVVVDDIERLLDYVPIGPRFSNLVLQALLVLLKKAPPQGRKLLIIGTTSRKDVLQEMEMLNAFSTTIHVPNIATGEQLLEALELLGNFKDKERTTIAQQVKGKKVWIGIKKLLMLIEMSLQMDPEYRVRKFLALLREEGASPLDFD
B2: NSF double hydrolysis mutant E329/D604Q (natural protein, UniProt P18708 1-744, looked up)
chain: B1 chain with A266K, E329Q, D604Q
B3: NSF D604Q mutant (natural protein, UniProt P18708 1-744, looked up)
chain: B1 chain with A266K, D604Q
B4: NSF K549A mutant (natural protein, UniProt P18708 1-744, looked up)
chain: B1 chain with A266K, K549A
B5: NSF E329Q mutant (natural protein, UniProt P18708 1-744, looked up)
chain: B1 chain with A266K, E329Q

Target: the molecule itself
Test: SEC

Protein	binding result
B1	binds
B2	binds
B3	binds
B4	binds
B5	binds
